According to PMC3777995, “The Inhibitory Helix Controls the Intramolecular Conformational Switching of the C-Terminus of STIM1” (PLoS ONE, 2013):
Where “and” joins values, the source holds several entries; their conditions need not be identical. Identical values can stand only once.

Columns and labels:
[1] = target: the molecule itself; assay: AUC; sedimentation velocity, 42,000 rpm, 4°C, interference detection; approximately 6 mg/ml CC1-IH, 1.57 mg/ml CC1, 1.2 mg/ml MBP-IH; 20 mM Tris-HCl pH 8.0, 200 mM NaCl, 1 mM EDTA; self-associating multimerization model
[2] = target: the molecule itself; assay: SEC; HiLoad 26/60 Superdex 200 and Superdex 200 columns calibrated with protein standards; 20 mM Tris-HCl pH 8.0, 200 mM NaCl, 1 mM EDTA

B1: wild-type CC1-IH (human STIM1 amino acids 237-340) (domain or fragment, UniProt Q13586 237-340, looked up)
chain: SKEHMKKMMKDLEGLHRAEQSLHDLQERLHKAQEEHRTVEVEKVHLEKKLRDEINLAKQEAQRLKELREGTENERSRQKYAEEELEQVREALRKAEKELESHSS
notes: Predominantly a dimer and partially a tetramer by AUC; His tag removed with PreScission protease; source: E. coli BL21(DE3) Codon-Plus, purified (Ni-NTA, Q-Sepharose, Superdex-200)
For B1, the “stoichiometry N” value [1] was 2 and 4.

B2: IH-only fragment of STIM1 (peptide, UniProt Q13586 310-340, looked up)
chain: ERSRQKYAEEELEQVREALRKAEKELESHSS
notes: limits 310-340 are printed for the MBP-tagged IH from which this fragment was cut; Theoretical mass 3.7 kDa; also called IH-only protein; source: E. coli, obtained by PreScission digestion of purified MBP-IH, purified (Superdex 200)
In the case of B2, the “stoichiometry N” value [2] is reported as 2.

B3: MBP-IH fusion protein (MBP-tagged IH, STIM1 residues 310-340) (domain or fragment, human, UniProt Q13586 310-340, looked up)
chain: B2 chain
notes: made by loop-out of the CC1 fragment from MBP-CC1-IH; Theoretical mass 49 kDa; a PreScission-cleavable segment stands between MBP and IH; also called IH-MBP fusion protein; source: E. coli, purified (MBPTrap, Q-Sepharose, Superdex-200)
For B3, the “stoichiometry N” value [2] was 2.
